Among the targets are MLL CXXC Q1187A (human, UniProt Q03164 1147-1203, Q1187A); MLL CXXC R1150A (human, UniProt Q03164 1147-1203, R1150A); MLL CXXC L1197A (human, UniProt Q03164 1147-1203, L1197A); MLL CXXC domain WT (human, UniProt Q03164 1147-1203); MLL CXXC C1188A (human, UniProt Q03164 1147-1203, C1188A); MLL CXXC M1200A (human, UniProt Q03164 1147-1203, M1200A).
Test in all cases: NMR titration

The record followed here is article PMC2908503.

MLL CXXC L1197A, sequence (Q03164 1147-1203 L1197A): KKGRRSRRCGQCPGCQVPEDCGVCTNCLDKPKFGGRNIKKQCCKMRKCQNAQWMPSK
MLL CXXC C1188A, sequence (Q03164 1147-1203 C1188A): as the sequence (Q03164 1147-1203 L1197A) above, with C42A, A51L counted along it
MLL CXXC Q1187A, sequence (Q03164 1147-1203 Q1187A): as the sequence (Q03164 1147-1203 L1197A) above, with Q41A, A51L counted along it
MLL CXXC domain WT, sequence (Q03164 1147-1203): as the sequence (Q03164 1147-1203 L1197A) above, with A51L counted along it
MLL CXXC M1200A, sequence (Q03164 1147-1203 M1200A): as the sequence (Q03164 1147-1203 L1197A) above, with A51L, M54A counted along it
MLL CXXC R1150A, sequence (Q03164 1147-1203 R1150A): as the sequence (Q03164 1147-1203 L1197A) above, with R4A, A51L counted along it

B1: DNApal (dsDNA)
DNA 1: CCCTGCGCAGGG
DNA 2: CCCTGCGCAGGG
In the case of B1, the results for the binding signal with MLL CXXC Q1187A, with MLL CXXC R1150A and in the series with MLL CXXC L1197A were 6 fold higher Kd vs WT, 5 fold decrease in binding vs WT and 4 fold decrease in binding vs WT, respectively. Moreover, in the series with MLL CXXC domain WT, binding was put at a Kd of 44 µM. Also, the binding result with MLL CXXC C1188A and in the series with MLL CXXC M1200A was “binds” in each case.

The Kd is the constant that tells how readily two partners part at equilibrium. The low end stands for tighter binding, the high end for weaker binding.
